The source of these data is the supplement of paper PMC9112550, “Optimization of the antimicrobial peptide Bac7 by deep mutational scanning” (BMC Biology, 2022).

In this series the test system is Escherichia coli TOP10. Nature of the series: shrunken log2 fold change of peptide-encoding DNA abundance (4.5 h post-induction vs induction); higher = less antimicrobial activity (less host growth inhibition). The note with it: time post-induction: 4.5 h; library: site-saturation at positions 5, 18, 19, 20.
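Note: peptides expressed intracellularly from a pBAD plasmid library in pooled LB shake-flask culture, induced with 0.3% L-arabinose, DNA abundance read by NGS, three biological replicates, DESeq2 with apeglm shrinkage.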

In the case of RRIRDRPPRLPRPRPRPPHTPRP, the “shrunken log2 fold change” value is 0.198.
Then RRIRVRPPRLPRPRPRPNSHPRP, with -0.402; and RRIRYRPPRLPRPRPRPVWKPRP, with 0.0654; and RRIRWRPPRLPRPRPRPYCIPRP, with -0.179.
Consider RRIRDRPPRLPRPRPRPQLLPRP, for which the “shrunken log2 fold change” value was 0.206.
Then RRIRNRPPRLPRPRPRPTECPRP, with -0.0689.
Consider RRIRRRPPRLPRPRPRPPMMPRP, for which the “shrunken log2 fold change” value was 0.21.
Next, RRIRWRPPRLPRPRPRPKWPPRP: 0.477; RRIRYRPPRLPRPRPRPEWAPRP: 0.193.
Take RRIRHRPPRLPRPRPRPHNFPRP: the “shrunken log2 fold change” value was -0.0184.
RRIRRRPPRLPRPRPRPYACPRP: the “shrunken log2 fold change” value was -0.207.
Take RRIRGRPPRLPRPRPRPCNWPRP: the “shrunken log2 fold change” value is 0.101.
For the sequence RRIRYRPPRLPRPRPRPCAEPRP, the “shrunken log2 fold change” value was -0.835.
With RRIRGRPPRLPRPRPRPVGRPRP, the “shrunken log2 fold change” value is 0.842.
Then RRIRDRPPRLPRPRPRPSFHPRP, with -0.429.
Next, RRIRLRPPRLPRPRPRPSDKPRP: -0.179.
Then RRIRCRPPRLPRPRPRPAGPPRP, with 0.116; and RRIRCRPPRLPRPRPRPCRSPRP, with 0.118.
For the sequence RRIRKRPPRLPRPRPRPPHFPRP, the “shrunken log2 fold change” value was determined as 0.519.
For RRIRFRPPRLPRPRPRPKAAPRP, the “shrunken log2 fold change” value was 0.264.
For the sequence RRIRMRPPRLPRPRPRPKCSPRP, the “shrunken log2 fold change” value is -0.0186.
As to RRIRVRPPRLPRPRPRPRHFPRP, the “shrunken log2 fold change” value was 0.13.
Then RRIRQRPPRLPRPRPRPQLHPRP, with -0.237; and RRIRRRPPRLPRPRPRPRRGPRP, with 0.788.
RRIRLRPPRLPRPRPRPVHTPRP: the “shrunken log2 fold change” value was -0.0875.
On to RRIRWRPPRLPRPRPRPDYLPRP, for which the “shrunken log2 fold change” value is -0.0223.
As for RRIRRRPPRLPRPRPRPDDFPRP, the “shrunken log2 fold change” value was determined as 0.252.
Consider RRIRARPPRLPRPRPRPCEDPRP, for which the “shrunken log2 fold change” value amounted to 0.693.
Then RRIRHRPPRLPRPRPRPHICPRP, with -0.259.
Then RRIRCRPPRLPRPRPRPDFSPRP, with -0.377; and RRIRHRPPRLPRPRPRPDYFPRP, with 0.0294.
Take RRIRDRPPRLPRPRPRPEQMPRP: the “shrunken log2 fold change” value came to 0.861.
Then RRIRCRPPRLPRPRPRPGPMPRP, with 0.326.
Consider RRIRQRPPRLPRPRPRPVYVPRP, for which the “shrunken log2 fold change” value was -0.216.
Next, RRIRFRPPRLPRPRPRPISKPRP: -0.0939.
For RRIRMRPPRLPRPRPRPIGIPRP, the “shrunken log2 fold change” value is -0.0706.
Then RRIRDRPPRLPRPRPRPHRSPRP, with -0.015; and RRIRKRPPRLPRPRPRPNVYPRP, with -0.0771.
Then RRIRVRPPRLPRPRPRPLDTPRP, with -0.257.
Regarding RRIRVRPPRLPRPRPRPMPLPRP, the “shrunken log2 fold change” value was -0.348.
As for RRIRNRPPRLPRPRPRPPNLPRP, the “shrunken log2 fold change” value was -0.166.
For the sequence RRIRWRPPRLPRPRPRPFMPPRP, the “shrunken log2 fold change” value was -0.714.
Then RRIRARPPRLPRPRPRPHCEPRP, with -0.113; and RRIRTRPPRLPRPRPRPAAHPRP, with 0.199.
Next, RRIRFRPPRLPRPRPRPFFIPRP: -0.429; RRIRIRPPRLPRPRPRPVPQPRP: 0.224.
For RRIRPRPPRLPRPRPRPSMMPRP, the “shrunken log2 fold change” value was -0.412.
Consider RRIRWRPPRLPRPRPRPAHKPRP, for which the “shrunken log2 fold change” value stood at 0.344.
Next, RRIRLRPPRLPRPRPRPELWPRP: 0.626; RRIRSRPPRLPRPRPRPMRWPRP: 0.664.
Take RRIRRRPPRLPRPRPRPKNFPRP: the “shrunken log2 fold change” value was 0.151.
Turning to RRIRDRPPRLPRPRPRPRNMPRP, the “shrunken log2 fold change” value is -0.602.
Next, RRIRERPPRLPRPRPRPICKPRP: -0.215; RRIRPRPPRLPRPRPRPGFDPRP: 0.131; RRIRRRPPRLPRPRPRPATCPRP: 0.161.
In the case of RRIRFRPPRLPRPRPRPKTHPRP, the “shrunken log2 fold change” value was -0.0208.
Then RRIRRRPPRLPRPRPRPSCYPRP, with -0.0677.
Next, RRIRNRPPRLPRPRPRPIQAPRP: -0.0922.
Next, RRIRTRPPRLPRPRPRPPYPPRP: 0.0259; RRIRERPPRLPRPRPRPLLAPRP: 0.173; RRIRKRPPRLPRPRPRPKPPPRP: 0.76.
Consider RRIRGRPPRLPRPRPRPNQMPRP, for which the “shrunken log2 fold change” value amounted to 1.6.
Next, RRIRGRPPRLPRPRPRPMKCPRP: 0.0384.
Consider RRIRDRPPRLPRPRPRPCNSPRP, for which the “shrunken log2 fold change” value is -0.0276.
Take RRIRSRPPRLPRPRPRPTKWPRP: the “shrunken log2 fold change” value is -0.0872.
Next, RRIRMRPPRLPRPRPRPYPAPRP: -0.246; RRIRYRPPRLPRPRPRPTWRPRP: 0.104.
Next, RRIRERPPRLPRPRPRPALKPRP: 0.4; RRIRKRPPRLPRPRPRPCCYPRP: 0.0681.
Then RRIRLRPPRLPRPRPRPNECPRP, with -0.0751; and RRIRMRPPRLPRPRPRPVMDPRP, with 0.025; and RRIRWRPPRLPRPRPRPPNCPRP, with -0.11.
Regarding RRIRARPPRLPRPRPRPQWQPRP, the “shrunken log2 fold change” value was -0.00057.
Turning to RRIRTRPPRLPRPRPRPWCKPRP, the “shrunken log2 fold change” value is -0.202.
Regarding RRIRARPPRLPRPRPRPMMSPRP, the “shrunken log2 fold change” value stood at 0.186.
As to RRIRKRPPRLPRPRPRPFCFPRP, the “shrunken log2 fold change” value worked out at 1.24.
Next, RRIRPRPPRLPRPRPRPMGMPRP: 0.0285.
Then RRIRERPPRLPRPRPRPRPPPRP, with 0.69; and RRIRQRPPRLPRPRPRPTAEPRP, with 0.363; and RRIRFRPPRLPRPRPRPCLRPRP, with -0.205.
Then RRIRERPPRLPRPRPRPEDRPRP, with -0.0523; and RRIRRRPPRLPRPRPRPRVHPRP, with 0.264.
RRIRHRPPRLPRPRPRPDLYPRP: the “shrunken log2 fold change” value is -0.243.
Then RRIRCRPPRLPRPRPRPIFWPRP, with 0.235; and RRIRHRPPRLPRPRPRPYNNPRP, with -0.819; and RRIRERPPRLPRPRPRPWFQPRP, with -0.0883.
For RRIRSRPPRLPRPRPRPDAFPRP, the “shrunken log2 fold change” value was 0.387.
As for RRIRKRPPRLPRPRPRPMIQPRP, the “shrunken log2 fold change” value stood at 0.195.
Then RRIRLRPPRLPRPRPRPKQEPRP, with -0.00888; and RRIRFRPPRLPRPRPRPEEQPRP, with 0.162.
As to RRIRVRPPRLPRPRPRPFENPRP, the “shrunken log2 fold change” value was -0.0486.
